Here are results for one substance from publication PMC11121168.

For the data set, the system named is CC[C@H](NC(=O)OC(C)(C)C)C(=O)N[C@H](C(=O)N[C@@H](CC(C)C)C(=O)N[C@@H](CCC(N)=O)C(=O)Nc1ccc2c(C)cc(=O)oc2c1)C(C)(C)C. Nature of the data set: purified protein, by the assay type. As to conditions: pH 7.2; 37.0 °C.

Take “C-terminally His-tagged SARS-CoV-2 Mpro (Severe acute respiratory syndrome coronavirus 2)”: the Km came out at 85.2 ± 5.6 µM.
